To fix the notation:
B1: S143 (designed binder)
chain: MGDTRPRFLWQLKFECHFFNGTERVRLLERCIYNQEESVRFDSDVGEYRAVTELGRPDAEYWNSQKDLLEQRRAAVDTYCRHNYGVGESFTVQRRVIKEEHVIIQAEFYLNPDQSGEFMFDFDGDEIFHVDMAKKETVWRLEEFGRFASFEAQGALANIAVDKANLEIMTKRSNYTPTINGGSHHHHHH
B2: S077 (designed binder)
chain: KPVSKMRMATPLLMQALPMASGGGGSGGGGDTRPRFLWQLKFECHFFNGTERVRLLERCIYNQEESVRFDSDVGEYRAVTELGRPDAEYWNSQKDLLEQRRAAVDTYCRHNYGVGESFTVQRRSGGGIKEEHVIIQAEFYLNPDQSGEFMFDFDGDEIFHVDMAKKETVWRLEEFGRFASFEAQGALANIAVDKANLEIMTKRSNYTGGSHHHHHHLE
B3: S068 (designed binder)
chain: GDTRPRFLWQLKFECHFFNGTERVRLLERCIYNQEESVRFDSDVGEYRAVTELGRPDAEYWNSQKDLLEQRRAAVDTYCRHNYGVGESFTVQRRVEPKVTVYPSKTQPLQHHNLLVCSVSGFYPGSIEVRWFRNGQEEKAGVVSTGLIQNGDWTFQTLVMLETVPRSGEVYTCQVEHPSVTSPLTVEWRASGGGGSGGGGSGGGGIKEEHVIIQAEFYLNPDQSGEFMFDFDGDEIFHVDMAKKETVWRLEEFGRFASFEAQGALANIAVDKANLEIMTKRSNYTPITNVPPEVTVLTNSPVELREPNVLICFIDKFTPPVVNVTWLRNGKPVTTGVSETVFLPREDHLFRKFHYLPFLPSTEDVYDCRVEHWGLDEPLLKHWEFDAPSGGSHHHHHHLE
B4: S058 (designed binder)
chain: GSHSMRYNYTSVSRPGRGEPRFISEGYVDDTQFVRFDSDAASPREEPRAPWIEQEGPEYWDRNTQIYKAQAQTDRESLRNLRGYYNQSEAGSHTLQSMYGCDVGPDGRLLRGHDQYYYDGKDYISLNEDLRSWTAADTAAQITQRKWEAAREAEQRRAYLEGECVEWLRRYLENGKDKLERADGGSHHHHHHLE
notes: Derived from MHC I proteins
B5: S065 (designed binder)
chain: B4 chain with N8F, E25V, Y59A, Y117A, Y123S, S125A, K146Y, W167H, Y171V
notes: Derived from MHC I proteins
B6: S134 (designed binder)
chain: MVKYHHHHHHGGSENLYFQGMGDTRPRFLWQPKRECHFFNGTERVRFLDRYFYNQEESVRFDSDVGEFRAVTELGRPDAEYWNSQKDILEQARAAVDTYCRHNYGVVESFTVQRRVIKEEHVIIQAEFYLNPDQSGEFMFDFDGDEIFHVDMAKKETVWRLEEFGRFASFEAQGALANIAVDKANLEIMTKRSNYTPITN
B7: S193 (designed binder)
chain: MGSKARMATGALAQAGGSGGSMIKEEHVINQAEYYLNPDQSGEFKFDFDGDEIFHVDMAKKETVWRLEEFGRFASFEAQGALAHIAVDKANLEIMTKRSNYTPMGDTRPRFLWQLKYECHFFNGTERVRLNERCIYNQEESVRFDSDVGEYRAVTELGRPDAEQWNSQKDHLEQRRAAVDTKCRHNYGVGESFTVQGGSHHHHHH
B8: S189 (designed binder)
single chain: MGIKEEHVINQAEYCLNPDQSGEFKFDFDGDEIFHVDMAKKETVWRLEEFGRFASFEAQGALAHIAVDCANLEIMTKRSNYTPMGDTRPRFLWQLKYECHFFNGTERVRLNERCIYNQEESVRFDSDVGEYRAVTELGRPDAEQWNSQKDHLEQRRAAVDTKCRHNYGVGESFTVQGGSHHHHHH
B9: S194 (designed binder)
chain: MGIKEEHVINQAEYYLNPDQSGEFKFDFDGDEIFHVDMAKKETVWRLEEFGRFASFEAQGALAHIAVDKANLEIMTKRSNYTPMGGGSKARMATGALAQAGGSGGSGDTRPRFLWQLKYECHFFNGTERVRLNERCIYNQEESVRFDSDVGEYRAVTELGRPDAEQWNSQKDHLEQRRAAVDTKCRHNYGVGESFTVQGGSHHHHHH
B10: S180 (designed binder)
single chain: MKEEHVIIQAEFYLNPDQSGEFMFDFDGDEIFHVDMAKKETVWRLEEFGRFASFEAQGALANIAVDKANLEIMTKRSNYTPITNTRPRFLWQPKRECHFFNGTERVRFLDRYFYNQEESVRFDSDVGEFRAVTELGRPDAEYWNSQKDILEQARAAVDTYCRHNYGVVESFTVQRRVQGGSHHHHHHLE
B11: S164 (designed binder)
chain: GIKEEHSIRQNEKYNNPDQSGNFEFHLDGQPIFRVDMQKKRTKWQLEEFGRFASFEAQGALANIAVFKINLEIMTKRSNQSEAGSHSWQLNFTCEFHEGTESVRLSERSYYNQENFVSFNSDVGEYRATTELGRPMAEYVNSQKDTLEQRRAAVDTYCRHNYGVGEYFTVQRR
notes: Computationally derived scaffold
B12: S171 (designed binder)
chain: GDTRPRFLWQLKWECHFYNGTERVRLNERCNYNQEESVRFDSDVGEYRAVTELGRPDAEFSNSQKDNLEQRRAAVDTLCRHNYGVGESFTVQRRSGGGIKEEHVINQAEYYLNPDQSGEFKFDFDGDEIFHVDMAKKETVWRLEEFGRFAIIEAYGALANIAVDKANLEIMTKQSNYT
notes: as for B11

Experimental findings from US20260102461A1 (AIKIUM, published 2026) are described below.

Substitutions are numbered along the chain they refer to. A value given as a limit tells only on which side of the number the result lay.

The first assay concerns the target T1, CD74 disordered region peptide (CLIP), PPKPVSKMRMATPLLMQALPMGALP (biotin (position not given)).
T1 peptide: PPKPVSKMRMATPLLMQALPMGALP
The experiment in a line: modified sandwich ELISA, fluorescence grade (key: >400000, Strong binding). Background: In an ELISA, binding on a coated surface is turned into a signal by an enzyme label.
The molecule B1 showed a fluorescent signal of more than 400000 fluorescentsignal.
Same read-out and setting: then B2, with more than 400000 fluorescentsignal.
Still for that read-out and setting: the result for B3 reads more than 400000 fluorescentsignal.

The target of another assay is T2, Urotensin-2 receptor (UR-II-R) disordered region, MALTPESPSSFPGLAATGSSVPEPPGGPNATLNSSWASPTEPSSLEDLVATGTI (biotin (position not given)).
T2 construct: also called Urotensin II R; GPCR2 (Urotensin II)
T2 peptide: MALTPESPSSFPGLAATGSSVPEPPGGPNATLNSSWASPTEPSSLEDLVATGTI
The experiment in a line: modified sandwich ELISA (scaffold coated, biotinylated peptide, streptavidin-HRP fluorescence).
Consider B4, for which the binding result is reported as “no binding (tested: <5000 (fluorescence signal, key))”.
On the same count and under the same terms, the result for B5 reads “no binding (tested: <5000 (fluorescence signal, key))”.

A further assay deals with T3, KAAG1 disordered region peptide, PGAAAAHLPRWPPPQLAASRREA (biotin (position not given)).
T3 peptide: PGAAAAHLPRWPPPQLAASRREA
The description is as above.
As to B1, the binding result is on record as “no binding (tested: <5000 (fluorescence signal, key))”.
Same read-out and setting: the result for B2 reads “no binding (tested: <5000 (fluorescence signal, key))”; that for B3, “no binding (tested: <5000 (fluorescence signal, key))”.
On the same count and under the same terms, the result for B6 reads “no binding (tested: <5000 (fluorescence signal, key))”.

For a further assay, the target named is T4, GMERKFMSLQPSISVSEMEPNGTFSNNNSRNCTIENFKREFFP (biotinylated, position not given).
T4 peptide: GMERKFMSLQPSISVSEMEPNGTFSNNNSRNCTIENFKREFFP
The experiment in a line: ELISA, scaffold coated on the plate, biotinylated peptide titrated, streptavidin-HRP fluorescence. On the procedure: (§1) Binder proteins were coated on the surface of a high binding capacity 96 well plate by incubating 100 μL of protein at […] in a coating solution (10 mM Tris pH 8.8, 50 mM NaCl), overnight at 4 C. The next morning, the coating solution was aspirated out and wells were washed once with 300 μL ELISA wash buffer (lx PBS, 0.05% Tween-20) and solution was aspirated out. The wells were blocked with 200 μL of a blocking buffer (1×PBS, 0.05% Tween-20, 3% BSA) at room temperature for 1 hour. After one hour, the blocking solution was aspirated out and 100 μL of biotinylated polypeptide in a binding buffer (1×PBS, 0.05% Tween-20, 0.5% BSA) at various concentrations was added to the appropriate well and incubated for 20 minutes. Peptide solution was aspirated out after 20 minutes and wells were washed 5 times with 300 μL of ELISA wash buffer. To detect the biotinylated peptide, 100 μL of streptavidin-HRP (50 ng/mL) was added to each well and incubated for 1 hour. The wells were subsequently washed 5 times with 300 μL of ELISA wash buffer. 100 μL of QuantaBlu Fluorogenic Peroxidase substrate solution was added to each well, incubated for 30 minutes and reaction stopped by adding 100 μL of stop solution. Fluorescent signal from each well was measured using a Biotek Cytation5 plate reader by exciting the fluorophore at […] and measuring emission at 420 nm. Fluorescent signals were plotted as a function of polypeptide concentration.
In the case of B7, the binding result is on record as “binds”.
The same measure, in the same setting: then B8, with “binds”; and B9, with “binds”.
Consider B10, for which the binding result is reported as “binds”.

The target of another assay is T3, KAAG1 disordered region peptide, …. The description is as above. On the procedure:
as §1
Take B7: the binding result is listed as “no binding (tested: 10000 nM)”.
The same measure, in the same setting: then B9, with “no binding (tested: 10000 nM)”.
Consider B11, for which the binding result was “no binding (tested: 10000 nM)”.
As for B4, the binding result is “binds”.
On the same count and under the same terms, then B5, with “no binding (tested: 10000 nM)”; and B12, with “no binding (tested: 10000 nM)”.

The target in the next assay is T5, CYSLTR2 N-terminal disordered region, MERKFMSLQPSISVSEMEPNGTFSNNNSRNCTIENFKREFFP (biotin (position not given)).
T5 construct: also called CysLT2; CysLT2r
T5 peptide: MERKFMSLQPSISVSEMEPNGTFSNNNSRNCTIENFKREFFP
The description is as above. On the procedure:
as §1
With B11, the binding result is given as “no binding (tested: 10000 nM)”.
The same measure, in the same setting: then B12, with “no binding (tested: 10000 nM)”.

A further assay addresses T6, TNFRSF13B disordered region peptide, LPPELRRQRSGEVENNSDNSGRYQ (biotin (position not given)).
T6 peptide: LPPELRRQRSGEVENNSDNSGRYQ
The assay is described as above. On the procedure: as §1
For the molecule B7, the binding result is “no binding (tested: 10000 nM)”.
Still for that read-out and setting: the result for B9 reads “no binding (tested: 10000 nM)”.

For the next assay, the target named is T7, CYSLTR2 Epitope SISVSEMEPNGTFSNNNSRNC (N-terminally biotinylated).
T7 peptide: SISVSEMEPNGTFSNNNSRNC
Described as above. How it is done: as §1
On to B7, for which the binding result is “binds”.
Same read-out and setting: the result for B8 reads “binds”; that for B9, “binds”; that for B10, “binds”.

The next assay has as its target T8, KCNA6 Epitope QQQEQQPASGGGGQNGQQAMS (biotin (position not given)).
T8 peptide: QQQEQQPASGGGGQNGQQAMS
The assay is described as above. On the procedure:
as §1
On to B7, for which the binding result was “no binding (tested: 10000 nM)”.
Still for that read-out and setting: then B9, with “no binding (tested: 10000 nM)”.

The target of another assay is T9, CD40LG Epitope NKEETKKENSFEMQKGDQNPQIAAH (biotin (position not given)).
T9 peptide: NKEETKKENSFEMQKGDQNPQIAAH
The description is as above. On the procedure:
as §1
In the case of B7, the binding result was “no binding (tested: 10000 nM)”.
Turning to B9, the binding result was “no binding (tested: 10000 nM)”.
